{
  "source": "patent US20190248881A1",
  "binders": {"B1": {"name": "1D11 (PCT-001), mouse monoclonal anti-TGF-β antibody (antibody, from another filing, V domains shown)", "VH": "QVQLQQSGPELVRPGASVKLSCKASGYIFITYWMNWVKQRPGQGLEWIGQIFPASGSTNYNEMFEGKATLTVDTSSSTAYMQLSSLTSEDSAVYYCARGDGNYALDAMDYWGQGTSVTVSS", "VL": "DIVLTQSPASLAVSLGQRATISCRASESVDSYGNSFMHWYQQKSGQPPKLLIYLASNLESGVPARFSGSGSRTDFTLTIDPVEADDAATYYCQQNNEDPLTFGAGTKLEIK"}},
  "key": {"[1]": {"molecular_target": "T1, TGF-β2 (UniProt P61812)", "T1 sequence (looked up)": "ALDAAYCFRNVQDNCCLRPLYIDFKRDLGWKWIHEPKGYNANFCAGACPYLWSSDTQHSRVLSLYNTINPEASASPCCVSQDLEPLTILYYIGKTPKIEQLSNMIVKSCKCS", "experiment": "SPR; cycle 14, TGF-B2"}, "[2]": {"molecular_target": "TGF-β1 (UniProt P01137)", "sequence (P01137 279-390 limits assumed)": "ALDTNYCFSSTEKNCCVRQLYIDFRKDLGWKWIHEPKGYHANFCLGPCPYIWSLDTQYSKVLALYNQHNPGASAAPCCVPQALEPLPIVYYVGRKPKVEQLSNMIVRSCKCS"}, "[3]": {"molecular_target": "TGF-β1 (UniProt P01137)", "experiment": "SPR; average of cycles 10, 12, 14, TGF-B1"}, "[4]": {"molecular_target": "T1, TGF-β2", "experiment": "SPR; cycle 12, TGF-B2"}, "[5]": {"molecular_target": "T2, TGF-β3 (UniProt P10600)", "T2 sequence (looked up)": "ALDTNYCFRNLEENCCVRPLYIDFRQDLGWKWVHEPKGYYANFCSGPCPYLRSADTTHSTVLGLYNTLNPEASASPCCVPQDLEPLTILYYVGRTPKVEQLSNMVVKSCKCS"}, "[6]": {"molecular_target": "TGF-β1 (UniProt P01137)", "experiment": "SPR; cycle 12, TGF-B1"}, "[7]": {"molecular_target": "T1, TGF-β2", "experiment": "SPR; cycle 10, TGF-B2"}, "[8]": {"molecular_target": "T2, TGF-β3", "experiment": "SPR; average of cycles 10, 12, 14, TGF-B3"}, "[9]": {"molecular_target": "TGF-β1 (UniProt P01137)", "experiment": "cell-based or functional assay", "design": "unit not given beside the values"}, "[10]": {"molecular_target": "T1, TGF-β2", "experiment": "cell-based or functional assay", "design": "unit not given beside the values"}, "[11]": {"molecular_target": "T2, TGF-β3", "experiment": "cell-based or functional assay", "design": "unit not given beside the values"}, "[12]": {"molecular_target": "TGF-β1 (UniProt P01137)", "remark": "listed apart in the source"}, "[13]": {"molecular_target": "T2, TGF-β3", "experiment": "SPR; cycle 12, TGF-B3"}, "[14]": {"molecular_target": "T2, TGF-β3", "experiment": "SPR; cycle 14, TGF-B3"}, "[15]": {"molecular_target": "T1, TGF-β2"}, "[16]": {"molecular_target": "T1, TGF-β2", "experiment": "SPR; average of cycles 10, 12, 14, TGF-B2"}, "[17]": {"molecular_target": "T2, TGF-β3", "experiment": "SPR; cycle 10, TGF-B3"}, "[18]": {"molecular_target": "TGF-β1 (UniProt P01137)", "experiment": "cell-based or functional assay"}, "[19]": {"molecular_target": "T1, TGF-β2", "experiment": "cell-based or functional assay"}, "[20]": {"molecular_target": "T2, TGF-β3", "experiment": "cell-based or functional assay"}, "[21]": {"molecular_target": "T2, TGF-β3", "remark": "listed apart in the source"}, "[22]": {"molecular_target": "T1, TGF-β2", "remark": "listed apart in the source"}, "[23]": {"molecular_target": "TGF-β1 (UniProt P01137)", "experiment": "SPR; cycle 10, TGF-B1"}, "[24]": {"molecular_target": "TGF-β1 (UniProt P01137)", "experiment": "SPR; cycle 14, TGF-B1"}},
  "note": "Where two headings read alike, the source gives them in different places.",
  "data": [
    {"binder": "B1", "values": [
      {"measurement": "Kd", "setting": "[1]", "value": 0.0723, "unit": "nM"},
      {"measurement": "koff", "setting": "[1]", "value": "4.98e-05", "unit": "s⁻¹"},
      {"measurement": "kon", "setting": "[1]", "value": 690000, "unit": "M⁻¹ s⁻¹"},
      {"measurement": "IC50 (read off the curve)", "setting": "[2]", "value": 0.1, "unit": "nM"},
      {"measurement": "Kd", "setting": "[3]", "value": 0.0873, "unit": "nM"},
      {"measurement": "koff", "setting": "[3]", "value": "4.06e-05", "unit": "s⁻¹"},
      {"measurement": "kon", "setting": "[3]", "value": 470000, "unit": "M⁻¹ s⁻¹"},
      {"measurement": "Kd", "setting": "[4]", "value": 0.082, "unit": "nM"},
      {"measurement": "koff", "setting": "[4]", "value": "5.54e-05", "unit": "s⁻¹"},
      {"measurement": "kon", "setting": "[4]", "value": 675000, "unit": "M⁻¹ s⁻¹"},
      {"measurement": "IC50 (read off the curve)", "setting": "[5]", "value": 0.03, "unit": "nM"},
      {"measurement": "Kd", "setting": "[6]", "value": 0.0873, "unit": "nM"},
      {"measurement": "koff", "setting": "[6]", "value": "4.18e-05", "unit": "s⁻¹"},
      {"measurement": "kon", "setting": "[6]", "value": 479000, "unit": "M⁻¹ s⁻¹"},
      {"measurement": "Kd", "setting": "[7]", "value": 0.0832, "unit": "nM"},
      {"measurement": "koff", "setting": "[7]", "value": "5.17e-05", "unit": "s⁻¹"},
      {"measurement": "kon", "setting": "[7]", "value": 621000, "unit": "M⁻¹ s⁻¹"},
      {"measurement": "Kd", "setting": "[8]", "value": 0.0116, "unit": "nM"},
      {"measurement": "koff", "setting": "[8]", "value": "3.57e-06", "unit": "s⁻¹"},
      {"measurement": "kon", "setting": "[8]", "value": 310000, "unit": "M⁻¹ s⁻¹"},
      {"measurement": "IC50 for neutralization of TGF-β", "setting": "[9]", "value": 0.0722},
      {"measurement": "IC50 for neutralization of TGF-β", "setting": "[10]", "value": 0.492},
      {"measurement": "IC50 for neutralization of TGF-β", "setting": "[11]", "value": 0.0547},
      {"measurement": "IC50 (read off the curve)", "setting": "[12]", "value": 0.2, "unit": "nM"},
      {"measurement": "Kd", "setting": "[13]", "value": 0.016, "unit": "nM"},
      {"measurement": "koff", "setting": "[13]", "value": "5.06e-06", "unit": "s⁻¹"},
      {"measurement": "kon", "setting": "[13]", "value": 316000, "unit": "M⁻¹ s⁻¹"},
      {"measurement": "Kd", "setting": "[14]", "value": 0.00793, "unit": "nM"},
      {"measurement": "koff", "setting": "[14]", "value": "2.75e-06", "unit": "s⁻¹"},
      {"measurement": "kon", "setting": "[14]", "value": 346000, "unit": "M⁻¹ s⁻¹"},
      {"measurement": "IC50 (read off the curve)", "setting": "[15]", "value": 0.4, "unit": "nM"},
      {"measurement": "Kd", "setting": "[16]", "value": 0.0792, "unit": "nM"},
      {"measurement": "koff", "setting": "[16]", "value": "5.23e-05", "unit": "s⁻¹"},
      {"measurement": "kon", "setting": "[16]", "value": 662000, "unit": "M⁻¹ s⁻¹"},
      {"measurement": "Kd", "setting": "[17]", "value": 0.0108, "unit": "nM"},
      {"measurement": "koff", "setting": "[17]", "value": "2.9e-06", "unit": "s⁻¹"},
      {"measurement": "kon", "setting": "[17]", "value": 268000, "unit": "M⁻¹ s⁻¹"},
      {"measurement": "EC50, TGF-β isoform neutralization", "setting": "[18]", "value": 0.0478, "unit": "nM"},
      {"measurement": "EC50 for neutralization of TGF-β", "setting": "[18]", "value": 164, "unit": "picomol/L"},
      {"measurement": "EC50, TGF-β isoform neutralization", "setting": "[19]", "value": 0.591, "unit": "nM"},
      {"measurement": "EC50 for neutralization of TGF-β", "setting": "[19]", "value": 382, "unit": "picomol/L"},
      {"measurement": "EC50, TGF-β isoform neutralization", "setting": "[20]", "value": 0.225, "unit": "nM"},
      {"measurement": "EC50 for neutralization of TGF-β", "setting": "[20]", "value": 19, "unit": "picomol/L"},
      {"measurement": "IC50 (read off the curve)", "setting": "[21]", "value": 0.02, "unit": "nM"},
      {"measurement": "IC50 (read off the curve)", "setting": "[22]", "value": 0.2, "unit": "nM"},
      {"measurement": "Kd", "setting": "[23]", "value": 0.102, "unit": "nM"},
      {"measurement": "koff", "setting": "[23]", "value": "4.23e-05", "unit": "s⁻¹"},
      {"measurement": "kon", "setting": "[23]", "value": 416000, "unit": "M⁻¹ s⁻¹"},
      {"measurement": "Kd", "setting": "[24]", "value": 0.0733, "unit": "nM"},
      {"measurement": "koff", "setting": "[24]", "value": "3.78e-05", "unit": "s⁻¹"},
      {"measurement": "kon", "setting": "[24]", "value": 515000, "unit": "M⁻¹ s⁻¹"}
    ]}
  ]
}
